Laboratory results published in patent US20230025129A1 (KYMAB, published 2023).

How the values were obtained:
Test in all cases: cell-based or functional assay
[1] = target: T1, human MTP-2 expressed on HEK293 cells (human, UniProt Q8IU80 1-811)
T1 sequence: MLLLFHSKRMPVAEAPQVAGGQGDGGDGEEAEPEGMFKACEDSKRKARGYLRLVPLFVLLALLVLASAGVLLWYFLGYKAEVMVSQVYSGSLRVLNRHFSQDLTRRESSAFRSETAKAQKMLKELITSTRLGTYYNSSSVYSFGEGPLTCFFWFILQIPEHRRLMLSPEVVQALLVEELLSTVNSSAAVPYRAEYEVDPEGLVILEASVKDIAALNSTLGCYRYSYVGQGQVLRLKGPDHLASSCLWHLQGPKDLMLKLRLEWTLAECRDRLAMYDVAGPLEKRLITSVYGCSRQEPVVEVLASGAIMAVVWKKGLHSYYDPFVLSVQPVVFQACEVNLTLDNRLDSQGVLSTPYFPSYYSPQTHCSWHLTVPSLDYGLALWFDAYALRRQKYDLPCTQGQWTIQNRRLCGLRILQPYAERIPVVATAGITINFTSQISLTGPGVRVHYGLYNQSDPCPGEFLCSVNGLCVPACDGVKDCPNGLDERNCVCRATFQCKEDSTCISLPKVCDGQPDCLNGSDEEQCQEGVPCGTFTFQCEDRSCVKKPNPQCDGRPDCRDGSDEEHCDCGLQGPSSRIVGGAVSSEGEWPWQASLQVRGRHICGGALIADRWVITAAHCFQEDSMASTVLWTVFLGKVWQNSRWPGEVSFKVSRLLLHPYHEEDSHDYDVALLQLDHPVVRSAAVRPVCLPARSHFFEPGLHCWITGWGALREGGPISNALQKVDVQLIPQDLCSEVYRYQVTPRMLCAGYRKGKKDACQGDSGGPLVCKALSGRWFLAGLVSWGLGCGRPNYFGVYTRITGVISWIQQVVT

[2] = target: T2, human matriptase-2 ECD protein his tag (human, UniProt Q8IU80 78-811)
T2 sequence: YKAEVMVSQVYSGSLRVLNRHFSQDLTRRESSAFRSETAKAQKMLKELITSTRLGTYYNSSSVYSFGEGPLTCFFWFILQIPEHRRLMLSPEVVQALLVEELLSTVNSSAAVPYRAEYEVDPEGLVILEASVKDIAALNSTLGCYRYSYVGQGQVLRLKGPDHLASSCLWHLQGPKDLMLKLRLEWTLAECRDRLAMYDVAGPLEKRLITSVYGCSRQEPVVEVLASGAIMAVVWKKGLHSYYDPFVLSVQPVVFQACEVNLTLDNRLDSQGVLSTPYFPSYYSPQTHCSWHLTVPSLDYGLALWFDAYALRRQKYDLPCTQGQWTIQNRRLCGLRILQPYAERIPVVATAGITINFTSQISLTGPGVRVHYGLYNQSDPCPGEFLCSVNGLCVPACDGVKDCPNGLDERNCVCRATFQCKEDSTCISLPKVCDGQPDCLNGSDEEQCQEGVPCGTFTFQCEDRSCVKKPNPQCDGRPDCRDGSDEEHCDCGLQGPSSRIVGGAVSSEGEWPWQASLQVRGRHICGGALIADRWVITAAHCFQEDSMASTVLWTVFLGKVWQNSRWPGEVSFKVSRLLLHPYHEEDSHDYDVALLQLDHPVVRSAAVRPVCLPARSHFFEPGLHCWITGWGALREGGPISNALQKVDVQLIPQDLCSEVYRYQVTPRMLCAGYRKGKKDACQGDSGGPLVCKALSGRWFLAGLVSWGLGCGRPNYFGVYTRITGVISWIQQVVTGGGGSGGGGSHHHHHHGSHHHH

[3] = target: T3, mouse matriptase-2 ECD protein his tag (mouse, UniProt Q9DBI0 80-811)
T3 sequence: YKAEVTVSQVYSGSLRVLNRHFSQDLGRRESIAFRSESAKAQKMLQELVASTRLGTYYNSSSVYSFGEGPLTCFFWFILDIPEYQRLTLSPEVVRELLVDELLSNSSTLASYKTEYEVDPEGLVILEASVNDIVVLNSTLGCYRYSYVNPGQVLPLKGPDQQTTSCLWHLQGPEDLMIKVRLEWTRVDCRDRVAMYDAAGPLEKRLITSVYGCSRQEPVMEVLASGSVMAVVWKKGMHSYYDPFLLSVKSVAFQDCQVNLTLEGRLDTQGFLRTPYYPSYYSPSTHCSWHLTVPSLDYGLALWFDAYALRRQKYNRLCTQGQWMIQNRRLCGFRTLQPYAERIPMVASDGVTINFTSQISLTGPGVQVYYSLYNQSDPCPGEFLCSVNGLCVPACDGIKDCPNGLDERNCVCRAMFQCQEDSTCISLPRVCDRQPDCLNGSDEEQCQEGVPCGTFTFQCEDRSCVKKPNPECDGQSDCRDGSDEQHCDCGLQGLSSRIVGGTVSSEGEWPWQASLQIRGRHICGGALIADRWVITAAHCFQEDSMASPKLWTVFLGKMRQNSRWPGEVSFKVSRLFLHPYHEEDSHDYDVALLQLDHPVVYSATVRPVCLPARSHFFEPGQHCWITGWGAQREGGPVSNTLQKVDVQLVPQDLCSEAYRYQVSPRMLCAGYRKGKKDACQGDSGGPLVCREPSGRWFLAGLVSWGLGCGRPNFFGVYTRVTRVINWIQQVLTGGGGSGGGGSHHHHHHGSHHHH

Binder | Inhibition enzymatic activity human MTP2 on cells (IC50) [1] [nM] | Inhibition enzymatic activity human MTP2 protein (IC50) [2] [nM] | Inhibition enzymatic activity mouse MTP2 protein (IC50) [3] [nM]
NORI-008 (antibody, human IgG4 S228P, kappa, V domains shown, human IgG4PE, kappa, in the in vitro assays; a mouse IgG1 format was used in one in vivo study only; also called NORI-008 hulgG4PE; NORI-008 IgG) VH: QVQLQESGPGLVKPSETLSLTCSVSGGSVSSGRYYWTWIRQPPGKGLEWIGYISNSGNTNYNPSLKSRVTISLDTSKKQFSLSLSAVTAADTAVYYCARGFIYDYWFDPWGQGSLVTVSS VL: DSQMTQSPSSLSASVGDRVTITCQASQDIDNYLNWYQQRPGKAPKLLIYDASKLETGVPSRFSGSGSGTDFTFTISSLQPEDFATYYCQQYGNLPITFGQGTRLDIKR | 0.0839 | 8.28 | 1.5
NORI-006 (antibody, human IgG4 S228P, kappa, V domains shown, human IgG4PE, kappa) VH: EVQLVESGGGLIKPGRSLRLSCTGSGFTFGDFGLSWFRQAPGKGLEWISFIRSKPYGGTTDYAASVKGRFTISRDDSKNVAYLQMNSLKTEDTAVYYCARNEILTGYYIFDYWGQGTLVTVSS VL: DIQMTQSPSSLSASLGDRVTITCQASQDINNYLNWYQVQPGKAPKLLIFDASILETGVPSRFSGSGSGTDFSFTISSLQPEDIATYYCQQYDNLPLTFGGGTKVDFKR | – | 8.8 | 22.9
NORI-013 (antibody, human IgG4 S228P, lambda, V domains shown, human IgG4PE, lambda) VH: EVQLVESGGGLIQAGRSLRLSCAASGFTFDEHVIYWVRQIPGKGLEWISSISWKSDIIAYADSVKGRFTISRDNAKNALYLQMNSLRAEDTALYYCAREKDGDFYYYYFAMDVWGQGTTVTVSS VL: QSALTQPPSASGSPGQSVTLSCTGTSSDVGYYNYVSWYLQHPGKAPKLMIYEVSKRPSGVPDRFSGSKSANTASLTVSGLQAEDEADYYCSSYAGSNKVVFGGGTKVTVLG | 0.619 | 5.63 | 3.59
NORI-014 (antibody, human IgG4 S228P, lambda, V domains shown, human IgG4PE, lambda) VH: EVQLVESGGGLIQAGRSLRLSCAASGFTFDEHVMYWVRQIPGKGLEWISSITWKSDIIAYADSVKGRFTISRDNAKNALYLQMNSLRAEDTALYYCAREKDGDFYYYYFAMDVWGQGTTVTVSS VL: QSALTQPPSASGSPGQSVTLSCTGTSSDVGYYNYVSWYLQHPGKAPKLMIYEVSKRPSGVPDRFSGSKSANTASLTVSGLQAEDEADYYCSSYAGSNKVVFGGGTKVTVLG | 0.532 | 11.8 | 8.5
